The test system of data set [1] is TraI H159E H159E (Escherichia coli F plasmid). As to the kind of experiment: cleavage_in_vitro. Particulars: crossover eliminated per text (nd in table); in vivo transfer 0.0010%; 6 mM MgCl2, 37 C.
Data set [2] relates to TraI D81N D81N (Escherichia coli F plasmid). As to the kind of experiment: cleavage_in_vitro. Particulars: crossover 10%; in vivo transfer 0.0030%; printed DB1N in table; 6 mM MgCl2, 37 C.
The test system of data set [3] is TraI H159Q H159Q (Escherichia coli F plasmid). In words: cleavage_in_vitro. Particulars: crossover 95%; text calls this no change; 6 mM MgCl2, 37 C.
Data set [4] relates to TraI K265M K265M (Escherichia coli F plasmid). As to the kind of experiment: cleavage_in_vitro. The settings on record: in vivo transfer 59%; 6 mM MgCl2, 37 C.
Data set [5] relates to TraI wild-type (full length or N300) (Escherichia coli F plasmid). As to the kind of experiment: cleavage_in_vitro. Particulars: crossover 100%; 6 mM MgCl2, 150 mM NaCl, pH 7.5, 37 C.
In another data set the target is T1, F plasmid TraI N300 (Escherichia coli, UniProt P14565).
T1 construct: An amino-terminal 300 residue F plasmid TraI construct; made in house; host or cells: E. coli BL21 (DE3)/pLysS or HMS174 (DE3)/pLysS, vector pTYB2
T1 sequence (P14565 1-306): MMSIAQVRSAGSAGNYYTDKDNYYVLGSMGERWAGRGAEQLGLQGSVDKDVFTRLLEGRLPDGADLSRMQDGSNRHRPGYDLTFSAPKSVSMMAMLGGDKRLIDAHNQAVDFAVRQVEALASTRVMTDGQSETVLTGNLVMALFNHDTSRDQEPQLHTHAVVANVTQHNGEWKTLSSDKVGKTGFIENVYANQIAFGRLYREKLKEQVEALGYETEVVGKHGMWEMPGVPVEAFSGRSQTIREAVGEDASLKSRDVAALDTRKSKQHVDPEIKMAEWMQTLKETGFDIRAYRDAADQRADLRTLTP
As to the kind of experiment: Fluorescence kinetic assay of oriT DNA cleavage and crossover by TraI N300. It counts as biochemical, E. coli. The settings on record: data not shown. As for the experimental part:
Reaction Buffer: 6.42 mM MgCl2, 20.5% glycerol, 153.9 mM NaCl, and 51.3 mM Tris-HCl pH 7.5. Streptavidin Wash Buffer (Tris buffered saline, TBS/Tween): and 150 mM NaCl, 25 mM Tris-HCl pH 7.5, and 0.05% Tween-20. Stopping Buffer: 1.2% sodium-dodecyl sulfate (SDS), and 300 mM EDTA pH 10. TE Buffer: 1 mM EDTA, and 10 mM Tris-HCl pH 7.4. Fluorescence Buffer: 80% glycerol, 200 mM Tris-HCl pH 8.0. Short-term N300 stock (for storage at −20° C.): 50% Reaction Buffer, 49.8% glycerol, 0.2% long-term protein solution (84.6 nM final N300 concentration). All 5× stocks except Probe stocks were diluted in Reaction Buffer. 5× Enzyme Stock: 8.4 mL short-term N300 stock diluted to 2.02 nM N300. 5× Inhibitor Stocks: imidodiphosphate (pNp) at 0-50 nM in Reaction Buffer. 5× Substrate Stocks: oligonucleotides b29 and PCb31eco diluted to […] each, by 3-fold serial dilutions. 5× Probe Stocks: […] (1.2-fold molar excess) oligonucleotide downF in TE Buffer. All reactions and procedures involving downF were assembled or performed in darkened conditions. Solutions and microtiter plates containing downF were kept in foil-lined containers at all times to prevent photobleaching.
Two oriT derived oligonucleotides, b29 and PCb31eco, were designed for binding and cleavage by TraI based on past studies (see Oligonucleotides section herein; FIG. 4A). The overall method is modified from those described previously for the study of TraI and R388TrwC (Byrd et al., 2002; Grandoso et al., 2000; Matson and Morton, 1991). Reactions were assembled from 16 μL of 5× Substrate Stock, 16 μL of 5× Inhibitor Stock, and 32 μL of Reaction Buffer. 80 μL reactions were initiated with 16 μL of 5× Enzyme Stock and raised to 37° C. 10 μL samples were removed at eight time points (optimized to define timecourses) and stopped in 10 μL of Stopping Buffer at room temperature. Stopped reactions were placed on a 100° C. heat block for one minute, spiked with 2 μL of 5× Probe Stock while still hot, and incubated at 37° C. for 10 minutes (see Kinetic Assay Formulations for probe handling).
Samples were diluted to […] with Streptavidin Wash Buffer and transferred to Biobind Assembly streptavidin-coated microtiter plates (Thermo Electron Corporation, Waltham, Mass., U.S.A.) and incubated at 37° C. for 45 minutes. Plates were washed with at least 5-fold excess Streptavidin Wash Buffer (in an inverted position to prevent excess biotinylated species from transferring between wells). Wells were filled with 65 μL of Fluorescence Buffer for optimum 6-FAM™ fluorescence. Plates were read in a FLUOSTAR OPTIMA™ (BMG Labtech, Offenburg, Germany) with a 490 nm excitation and 520 nm emission filters (10 nm bandpass) with the gain optimized for maximum signal. The timecourses thus collected were designated Cleavage Courses. Plates were removed and irradiated with 306 nm ultraviolet radiation for 10 minutes to cleave the PC biotin linker. They were then washed inverted with at least 5-fold excess Streptavidin Wash Buffer, filled with 65 μL of Fluorescence Buffer, and again read as above. These timecourses were designated Cleavage+Crossover Courses (FIG. 4A).
All timecourses were fitted by nonlinear regression with un-weighted least-squares methods using SIGMAPLOT™ 8.0 (SYSTAT Software, Inc., Point Richmond, Calif., U.S.A.) (also used for graph construction). Timecourses with blanked signals in arbitrary fluorescence units were scaled by curve mean in groups of at least four replicates, culled for outliers, and averaged by time point. On average, one replicate time point was culled from each group of four used. The averaged curves were fitted to a simple, three-parameter exponential decay equation (Equation 1), time versus signal, and converted into units of concentration.
where t is time in seconds, y0+a is the initial signal, b is a constant that determines the shape of the curve. […]

Take oriT 22-mer: the activity (% of WT cleavage) worked out at 8.5 in data set [1], 53 in data set [2], 55 in data set [3] and 100 in data set [4]. The activity in data set [5] worked out at 100 % cleavage.

With `O=P(O)(O)OP(=O)(O)O` [Pyrophosphate, reference compound], the “effect on enzyme activity” value at F plasmid TraI N300 is “no effect”.
